Test system: C100Flag recombinant protein (Met + APP695 C-terminal fragment + Flag)
Sequence (chain, as listed by the source): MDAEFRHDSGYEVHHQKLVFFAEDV

Substance: γ3 protease in a membrane preparation from HeLa S3 cells
- γ-secretase activity (cleavage of the substrate, Aβ products detected by ECL): significant γ-secretase activity remains at pH 6.0 (the pH optimum for γ-secretase activity associated with γ3 protease)
